Assay results: the supplement of paper PMC10567573

B1: TRIM43 (parent)
chain: NNSWIRKNSTMVNSEDIFLLLCLK

Variants of: B1
Experiment: protein stability index of a GFP-peptide fusion (GPS, HEK-293T) (PSI 1-6); higher = more stable
Details: c terminus: a fixed tail appended
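Note: lentivirally expressed fusions sorted by FACS into six bins by GFP to DsRed ratio, PSI derived from sequencing read proportions per bin multiplied by bin number.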

Variant | protein stability index
NNSWIRKNSTMVNSADIFLLLCLK | 3.44
NNSWIRKNSTMVNSTDIFLLLCLK | 1.65
NNSWIRKNSTMVNSRDIFLLLCLK | 1.25
NNSWIRKNSTMVNSIDIFLLLCLK | 2.72
NNSWIRKNSTMVNSMDIFLLLCLK | 2.26
NNSWIRKNSTMVNSFDIFLLLCLK | 2.69
NNSWIRKNSTMVNSGDIFLLLCLK | 2.29
NNSWIRKNSTMVNSNDIFLLLCLK | 2.88
NNSWIRKNSTMVNSVDIFLLLCLK | 3.11
NNSWIRKNSTMVNSHDIFLLLCLK | 2.77
NNSWIRKNSTMVNSKDIFLLLCLK | 2.89
NNSWIRKNSTMVNSWDIFLLLCLK | 2.01
NNSWIRKNSTMVNSQDIFLLLCLK | 4.22
NNSWIRKNSTMVNSCDIFLLLCLK | 2.74
NNSWIRKNSTMVNSLDIFLLLCLK | 2.44
NNSWIRKNSTMVNSSDIFLLLCLK | 2.47
NNSWIRKNSTMVNSYDIFLLLCLK | 3.03
NNSWIRKNSTMVNSPDIFLLLCLK | 1.87
NNSWIRKTSTMVNSEDIFLLLCLK | 3.13
NNSWIRKWSTMVNSEDIFLLLCLK | 2.99
NNSWIRKSSTMVNSEDIFLLLCLK | 2.69
NNSWIRKPSTMVNSEDIFLLLCLK | 2.28
NNSWIRKYSTMVNSEDIFLLLCLK | 3.85
NNSWIRKRSTMVNSEDIFLLLCLK | 3.47

Variant | protein stability index
NNSWIRKLSTMVNSEDIFLLLCLK | 2.61
NNSWIRKVSTMVNSEDIFLLLCLK | 1.94
NNSWIRKKSTMVNSEDIFLLLCLK | 2.4
NNSWIRKQSTMVNSEDIFLLLCLK | 2.93
NNSWIRKMSTMVNSEDIFLLLCLK | 2.46
NNSWIRKNSNMVNSEDIFLLLCLK | 2.17
NNSWIRKNSLMVNSEDIFLLLCLK | 2.55
NNSWIRKNSYMVNSEDIFLLLCLK | 3.22
NNSWIRKNSEMVNSEDIFLLLCLK | 2.91
NNSWIRKNSKMVNSEDIFLLLCLK | 3.25
NNSWIRKNSCMVNSEDIFLLLCLK | 2.73
NNSWIRKNSFMVNSEDIFLLLCLK | 3.41
NNSWIRKNSPMVNSEDIFLLLCLK | 2.82
NNSWIRKNSQMVNSEDIFLLLCLK | 3.06
NNSWIRKNSWMVNSEDIFLLLCLK | 4.55
NNSWIRKNSVMVNSEDIFLLLCLK | 1.95
NNSWIRKNSDMVNSEDIFLLLCLK | 1.98
NNSWIRKNSRMVNSEDIFLLLCLK | 2.52
NNSWIRKNSIMVNSEDIFLLLCLK | 4.37
NNSWIRKNSGMVNSEDIFLLLCLK | 2.9
NNSWIRKNSHMVNSEDIFLLLCLK | 3.31
NNSWIRKNSSMVNSEDIFLLLCLK | 3.33
NNSWIRKNSMMVNSEDIFLLLCLK | 2.48
NNSWIRKNSTMVNSEDICLLLCLK | 2.71

Variant | protein stability index
NNSWIRKNSTMVNSEDILLLLCLK | 2.54
NNSWIRKNSTMVNSEDINLLLCLK | 1.54
NNSWIRKNSTMVNSEDIGLLLCLK | 1.51
NNSWIRKNSTMVNSEDIALLLCLK | 1.7
NNSWIRKNSTMVNSEDIILLLCLK | 3.7
NNSWIRKNSTMVNSEDIMLLLCLK | 4.64
NNSWIRKNSTMVNSEDIDLLLCLK | 2.42
NNSWIRKNSTMVNSEDIELLLCLK | 1.47
NNSWIRKNSTMVNSEDIKLLLCLK | 2.23
NNSWIRKNSTMVNSEDIHLLLCLK | 2.42
NNSWIRKNSTMVNSEDCFLLLCLK | 3.18
NNSWIRKNSTMVNSEDWFLLLCLK | 2.16
NNSWIRKNSTMVNSEDAFLLLCLK | 2.04
NNSWIRKNSTMVNSEDRFLLLCLK | 2.7
NNSWIRKNSTMVNSEDEFLLLCLK | 3.62
NNSWIRKNSTMVNSEDTFLLLCLK | 2.42
NNSWIRKNSTMVNSEDHFLLLCLK | 2.5
NNSWIRKNSTMVNSEDDFLLLCLK | 1.93
NNSWIRKNSTMVNSEDPFLLLCLK | 1.93
NNSWIRKNSTMVNSEDVFLLLCLK | 2.24
NNSWIRKNSTMVNSEDGFLLLCLK | 2.04
NNSWIRKNSTMVNSEDSFLLLCLK | 2.6
NNSWIRKNSTMVNSEDLFLLLCLK | 3.15
NNSWIRKNSTMVNSEDMFLLLCLK | 2.26

Variant | protein stability index
NNSWIRKNSTMVNSEDQFLLLCLK | 3.35
NNSWIRKNSTMVNSEDYFLLLCLK | 2.83
NNSWIRKNSTMVNSEDNFLLLCLK | 1.85
NNSWIRKNSTMVNSEDKFLLLCLK | 2.62
NNSWIRKNSTMVNSEDFFLLLCLK | 2.21
NNSWIRKNSTGVNSEDIFLLLCLK | 3.08
NNSWIRKNSTIVNSEDIFLLLCLK | 1.89
NNSWIRKNSTRVNSEDIFLLLCLK | 2.69
NNSWIRKNSTPVNSEDIFLLLCLK | 2.15
NNSWIRKNSTNVNSEDIFLLLCLK | 1.86
NNSWIRKNSTCVNSEDIFLLLCLK | 2.06
NNSWIRKNSTAVNSEDIFLLLCLK | 2.1
NNSWIRKNSTDVNSEDIFLLLCLK | 2.95
NNSWIRKNSTLVNSEDIFLLLCLK | 3.95
NNSWIRKNSTKVNSEDIFLLLCLK | 2.38
NNSWIRKNSTEVNSEDIFLLLCLK | 1.74
NNSWIRKNSTYVNSEDIFLLLCLK | 2.99
NNSWIRKNSTSVNSEDIFLLLCLK | 2.27
NNSWIRKNSTVVNSEDIFLLLCLK | 2.69
NNSWIRKNSTHVNSEDIFLLLCLK | 2.44
NNSWIRKNSTFVNSEDIFLLLCLK | 2.54
NNSWIRKNSTWVNSEDIFLLLCLK | 2.44
NNSWIRKNSTTVNSEDIFLLLCLK | 3.06
NNSWIRKNSTQVNSEDIFLLLCLK | 3.54

Variant | protein stability index
NNSWIRKNSTMLNSEDIFLLLCLK | 3.58
NNSWIRKNSTMENSEDIFLLLCLK | 2.92
NNSWIRKNSTMANSEDIFLLLCLK | 2.57
NNSWIRKNSTMMNSEDIFLLLCLK | 3.38
NNSWIRKNSTMHNSEDIFLLLCLK | 1.81
NNSWIRKNSTMINSEDIFLLLCLK | 2.53
NNSWIRKNSTMGNSEDIFLLLCLK | 2.21
NNSWIRKNSTMPNSEDIFLLLCLK | 2.79
NNSWIRKNSTMYNSEDIFLLLCLK | 3.38
NNSWIRKNSTMFNSEDIFLLLCLK | 2.89
NNSWIRKNSTMDNSEDIFLLLCLK | 1.97
NNSWIRKNSTMKNSEDIFLLLCLK | 2.75
NNSWIRKNSTMRNSEDIFLLLCLK | 4.39
NNSWIRKNSTMCNSEDIFLLLCLK | 1.62
NNSWIRKNSTMTNSEDIFLLLCLK | 4.1
NNSWIRKNSTMSNSEDIFLLLCLK | 4.3
NNSWIRKNSTMNNSEDIFLLLCLK | 3.36
NNSWIRKNSTMWNSEDIFLLLCLK | 2.41
NNSWIRKNSTMVNSESIFLLLCLK | 1.7
NNSWIRKNSTMVNSELIFLLLCLK | 2.59
NNSWIRKNSTMVNSEAIFLLLCLK | 1.59
NNSWIRKNSTMVNSEIIFLLLCLK | 2.17
NNSWIRKNSTMVNSETIFLLLCLK | 2.47
NNSWIRKNSTMVNSEHIFLLLCLK | 1.71

Variant | protein stability index
NNSWIRKNSTMVNSERIFLLLCLK | 2.8
NNSWIRKNSTMVNSEKIFLLLCLK | 3.16
NNSWIRKNSTMVNSEEIFLLLCLK | 3.13
NNSWIRKNSTMVNSEMIFLLLCLK | 2.45
NNSWIRKNSTMVNSENIFLLLCLK | 4.97
NNSWIRKNSTMVNSEVIFLLLCLK | 2.92
NNSWIRKNSTMVNSECIFLLLCLK | 3.95
NNSWIRKNSTMVNSEPIFLLLCLK | 2.23
NNSWIRKNSTMVNSEQIFLLLCLK | 2.49
NNSWIRKNSTMVNSEFIFLLLCLK | 2.37
NNSWIRKNSTMVNSEYIFLLLCLK | 2.65
NNSWIRKNSTMVNSEWIFLLLCLK | 3.2
NNSWIRKNSTMVNSEGIFLLLCLK | 2.5
NNSWIRKNRTMVNSEDIFLLLCLK | 2.62
NNSWIRKNYTMVNSEDIFLLLCLK | 3.67
NNSWIRKNATMVNSEDIFLLLCLK | 2.99
NNSWIRKNLTMVNSEDIFLLLCLK | 3.2
NNSWIRKNNTMVNSEDIFLLLCLK | 2.49
NNSWIRKNGTMVNSEDIFLLLCLK | 2.66
NNSWIRKNTTMVNSEDIFLLLCLK | 2.62
NNSWIRKNPTMVNSEDIFLLLCLK | 3.63
NNSWIRKNFTMVNSEDIFLLLCLK | 2.03
NNSWIRKNKTMVNSEDIFLLLCLK | 2.54
NNSWIRKNDTMVNSEDIFLLLCLK | 3.01

Variant | protein stability index
NNSWIRKNVTMVNSEDIFLLLCLK | 2.19
NNSWIRKNITMVNSEDIFLLLCLK | 3.83
NNSWIRKNCTMVNSEDIFLLLCLK | 2.28
NNSWIRKNWTMVNSEDIFLLLCLK | 4.39
NNSWIRKNETMVNSEDIFLLLCLK | 2.68
NNSWIRKNHTMVNSEDIFLLLCLK | 2.91
NNSWIRKNQTMVNSEDIFLLLCLK | 2.69
NNSWIRKNMTMVNSEDIFLLLCLK | 2.34
NNSWIRKNSTMVNTEDIFLLLCLK | 2.17
NNSWIRKNSTMVNCEDIFLLLCLK | 2.79
NNSWIRKNSTMVNDEDIFLLLCLK | 2.77
NNSWIRKNSTMVNKEDIFLLLCLK | 2.36
NNSWIRKNSTMVNHEDIFLLLCLK | 2.12
NNSWIRKNSTMVNIEDIFLLLCLK | 2.62
NNSWIRKNSTMVNPEDIFLLLCLK | 2.1
NNSWIRKNSTMVNMEDIFLLLCLK | 2.13
NNSWIRKNSTMVNFEDIFLLLCLK | 2.64
NNSWIRKNSTMVNQEDIFLLLCLK | 3.26
NNSWIRKNSTMVNAEDIFLLLCLK | 3.2
NNSWIRKNSTMVNVEDIFLLLCLK | 3.6
NNSWIRKNSTMVNEEDIFLLLCLK | 2.08
NNSWIRKNSTMVNREDIFLLLCLK | 2.77
NNSWIRKNSTMVNLEDIFLLLCLK | 2.31
NNSWIRKNSTMVNYEDIFLLLCLK | 2.89

Variant | protein stability index
NNSWIRKNSTMVNNEDIFLLLCLK | 2.82
NNSWIRKNSTMVLSEDIFLLLCLK | 2.44
NNSWIRKNSTMVWSEDIFLLLCLK | 3.07
NNSWIRKNSTMVTSEDIFLLLCLK | 1.95
NNSWIRKNSTMVPSEDIFLLLCLK | 2.87
NNSWIRKNSTMVYSEDIFLLLCLK | 2.33
NNSWIRKNSTMVKSEDIFLLLCLK | 3.69
NNSWIRKNSTMVFSEDIFLLLCLK | 2.69
NNSWIRKNSTMVISEDIFLLLCLK | 2.37
NNSWIRKNSTMVASEDIFLLLCLK | 3.6
NNSWIRKNSTMVQSEDIFLLLCLK | 3.14
NNSWIRKNSTMVMSEDIFLLLCLK | 3.59
NNSWIRKNSTMVGSEDIFLLLCLK | 3.19
NNSWIRKNSTMVRSEDIFLLLCLK | 2.39
NNSWIRKNSTMVVSEDIFLLLCLK | 2.72
NNSWIRKNSTMVDSEDIFLLLCLK | 3.31
NNSWIRKNSTMVCSEDIFLLLCLK | 3.44
NNSWIRKNSTMVESEDIFLLLCLK | 2.47
NNSWIRKNSTMVHSEDIFLLLCLK | 3
NNSWIRKNSTMVSSEDIFLLLCLK | 2.96
